Experimental findings from patent publication US20120121583A1 (Genentech, published 2012) are described below.

Changes are numbered by the printed parent chain.

First the molecules themselves.
T1: Human recombinant soluble TWEAK (human, UniProt O43508 99-249)
T1 sequence: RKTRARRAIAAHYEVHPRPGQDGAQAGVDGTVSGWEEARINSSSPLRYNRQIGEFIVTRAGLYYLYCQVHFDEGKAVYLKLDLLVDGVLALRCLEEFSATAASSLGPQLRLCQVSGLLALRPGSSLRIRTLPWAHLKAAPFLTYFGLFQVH

T2: human Flag-tagged soluble TWEAK (amino acids 106-249) (human, UniProt O43508 106-249)
T2 construct: N-terminal placement here is only an order of listing; not shown: Flag tag
T2 sequence: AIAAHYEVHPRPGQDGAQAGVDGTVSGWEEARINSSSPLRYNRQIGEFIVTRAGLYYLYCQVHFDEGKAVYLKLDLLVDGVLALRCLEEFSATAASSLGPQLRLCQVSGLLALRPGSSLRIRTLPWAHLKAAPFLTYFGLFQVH

T3: Biotinylated human soluble TWEAK (amino acids 99-249 of SEQ ID NO: 60) (human, UniProt O43508 99-249, biotinylated (sites not given))
T3 construct: Immobilised on the streptavidin sensor in the Biacore half-life assay; also called Human TWEAK; soluble human TWEAK
T3 sequence: T1 sequence

B1: Antibody 27 (antibody, V domains shown)
VH: QVQLVQSGAEVKKPGSSVKVSCKASGFDFSTYYMSWVRQAPGQGLEWMGTVYVRQGTTYYASWLNGRVTITADESTSTAYMELSSLRSEDTAVYYCARGGYNYDDAFVIWGQGTLVTVSS
VL: DIQMTQSPSSVSASVGDRVTITCQASQNIYSNLAWYQQKPGKAPKLLIYTASYLASGVPSRFSGSGSGTDYTLTISSLQPEDFATYYCQTAYYNSRPDTVAFGGGTKVEIK
notes: also called humanized 305 variant 305-LC2 / 305-HC4
B2: Antibody 28 (antibody, V domains shown)
VH: EVQLLESGGGLVQPGGSLTLSCAASGFDFSTYYMSWVRQAPGKGLEWVSTVYVRQGTTYYASWLNGRFTISRDNSKNTLYLQMNSLRAEDTAVYYCAKGGYNYDDAFVIWGQGTLVTVSS
VL: B1 VL
notes: Humanized variant of antibody 305; also called humanized 305 variant 305-LC2 / 305-HC7
B3: Antibody 29 (antibody, V domains shown)
VH: B2 VH with T19R, Y80D
VL: B1 VL
notes: Humanized variant of antibody 305; also called humanized 305 variant 305-LC2 / 305-HC8
B4: Antibody 30 (antibody, V domains shown)
VH: B2 VH with T19R, R87T
VL: B1 VL with Y71F
notes: Humanized variant of antibody 305; also called humanized 305 variant 305-LC1 / 305-HC10
B5: Antibody 34 (antibody, V domains shown)
VH: B2 VH with T19R
VL: B1 VL with D1A, Q3R, V11F, V15T, S77C, P80S
notes: Humanized variant of antibody 305; also called humanized 305 variant 305-LC4 / 305-HC2
B6: Antibody 32 (antibody, V domains shown)
VH: B2 VH with T19R, Y80D
VL: B1 VL with S10T, V11L, D70E, Y71F, E81D
notes: Humanized variant of antibody 305; also called humanized 305 variant 305-LC6 / 305-HC8
B7: Antibody 33 (antibody, V domains shown)
VH: B1 VH
VL: B1 VL with D1A, Q3R, V11F, V15T, S77C, P80S
notes: Humanized variant of antibody 305; also called humanized 305 variant 305-LC4 / 305-HC4
B8: Antibody 31 (antibody, V domains shown)
VH: B2 VH
VL: B1 VL with D1A, Q3R, V11F, V15T, S77C, P80S
notes: Humanized variant of antibody 305; also called humanized 305 variant 305-LC4 / 305-HC7
B9: TW-304 (antibody, V domains shown)
VH: QSLEESGGDLVKPGASLTLTCKASGFSFSSTYYMCWVRQAPGKGLEWIGCIYVGSSGAPYYASWAKGRFTISKTSSTTVALQMTSLTPADTATYVCTRSVHFGDLWGPGTLVTVSS
VL: DVVMTQTPSPVSAAVGGTVTIKCQASQSIGNDLSWYQQKPGQRPKLLIYSVSTLASGVPSRFKGSGSGTEYSLTISDVQCADAATYYCQCIDYGNNYVGNTFGGGTEVVVK
notes: also called Antibody 304; rabbit antibody 304
B10: TW-305 (antibody, V domains shown)
VH: QEQLVESGGGLVQPGGSLTLSCKASGFDFSTYYMSWVRQAPGKGLEWIGTVYVRQGTTYYASWLNGRFTISSDNAQNTVDLKMNSLTAADTATYFCAKGGYNYDDAFVIWGPGTLVTVSF
VL: AIEMTQTPFSVSAAVGGTVTINCQASQNIYSNLAWYQQKPGQPPKLLMYTASYLASGVPSRFKGSGSRTEYTLTISGVQCADAATYYCQTAYYNSRPDTVAFGGGTEVVVK
notes: also called Antibody 305; rabbit antibody 305

One test has as its target T1, Human recombinant soluble TWEAK. Kind of test: cell-based or functional assay.
On to B1, for which the “IL8-Secretion” value turned out to be 197 ng/mL.

In the case of B2, the “IL8-Secretion” value was determined as 165 ng/mL.

For B3, the “IL8-Secretion” value came out at 78 ng/mL.

As for B4, the “IL8-Secretion” value came out at 207 ng/mL.

Consider B5, for which the “IL8-Secretion” value stood at 24 ng/mL.

As for B6, the “IL8-Secretion” value was 134 ng/mL.

For the molecule B7, the “IL8-Secretion” value worked out at 26 ng/mL.

In the case of B8, the “IL8-Secretion” value was found to be 94 ng/mL.

The next test addresses T2, human Flag-tagged soluble TWEAK (amino …). Put plainly: competition ELISA: antibody pre-incubated with human Flag-TWEAK 2.5 ng/ml, binding to coated human Fn14:Fc. Here is the method: (§1) 96-well Maxisorp® plates (Nunc) were coated with 100 μl 1 μg/ml human Fn14:Fc (extracellular domain of human Fn14 (amino acids 1-75) fused to Fc portion of human IgG1) in PBS per well for 1.5 h at room temperature and blocked with a solution of 5% FBS in PBS for 30 minutes at room temperature under shaking. […] Wells were filled with 100 μl of anti-FLAG-HRP detection antibody, diluted 1:5000 in blocking buffer, and incubated for 1 h at room temperature. After four more wash steps, the signal was developed by addition of 100 μl 3,3,5,5-Tetramethylbenzidine (TMB) solution for approximately ten minutes. The reaction was stopped by adding 100 μl of 1 N HCl, and absorbance measured at 450 nm (reference wavelength 620 nm).
Background: ELISA stands for enzyme-linked immunosorbent assay.
For B9, the IC50 (usually the point on the concentration scale where inhibition reaches its midpoint) was 2.8 ng/mL.

Regarding B10, the IC50 came to 2.5 ng/mL.

The target in the next test is T1, Human recombinant soluble TWEAK. Put plainly: cell-based or functional assay. This is another data set of the same source.
With B9, the “IL-8 Secretion IC50” value turned out to be 109 ng/mL.

On to B10, for which the “IL-8 Secretion IC50” value was 99 ng/mL.

In another test the target is T3, Biotinylated human soluble TWEAK (amino …). Kind of test: Biacore SPR, biotinylated human soluble TWEAK on SA sensor, antibody as analyte, 25 C. Here is the method: A Biacore 2000 instrument was used with a Biacore streptavidin coated sensor mounted into the system. The system buffer HBS-ET (10 mM HEPES pH 7.4, 150 mM NaCl, 1 mM EDTA, 0.05% Tween® 20) was used at a flow rate of 100 μl/min. The sample buffer was the system buffer. Biotinylated human soluble TWEAK (amino acids 99-249 of SEQ ID NO: 60) and biotinylated murine soluble TWEAK (amino acids 81-225 of SEQ ID NO: 61) was immobilized on different flow cells on the SA sensor at 150 RU each. The flow cell FC1 was used as a blank reference cell. Each antibody was injected into the system as an analyte at 100 nM at 100 μl/min for 2 min association time. The dissociation of the immune complexes were monitored for 5 min. The sensor surface was washed with HBS-ET for 10 seconds and regenerated using 2×2 minutes injections with 10 mM glycine pH 2.25. This procedure was done at 25° C. The kinetically rate limiting step of the complex dissociation phase in the interval [240 s-300 s] was taken to calculate the dissociation rate kd [1/s] (Biacore Evaluation Software 4.0). According to the equation t1/2 diss=ln(2)/(60×kd), the half-life of the immunocomplexes in minutes was calculated.
In general terms: Surface plasmon resonance follows binding to a sensor surface in real time, without labels.
In the case of B1, the t/2 diss worked out at 110 min.

As to B2, the t/2 diss was 87 min.

Molecule B3 had a t/2 diss of 146 min.

B4: the t/2 diss worked out at 50 min.

In turn, B5 registered a t/2 diss of 158 min.

As for B6, the t/2 diss amounted to 67 min.

B7 had a t/2 diss of 127 min.

In turn, B8 showed a t/2 diss of 115 min.

For the next test the target is unchanged. Kind of test: Biacore SPR, biotinylated human soluble TWEAK on SA sensor, antibody as analyte, 37 C.
With B1, the t/2 diss is 147 min.

The molecule B2 came in with a t/2 diss of 115 min.

For B3, the t/2 diss worked out at 195 min.

As for B4, the t/2 diss came out at 45 min.

Consider B5, for which the t/2 diss was 185 min.

As for B6, the t/2 diss was 50 min.

Molecule B7 yielded a t/2 diss of 99 min.

In turn, B8 displayed a t/2 diss of 151 min.

In another test the target is T2, human Flag-tagged soluble TWEAK (amino …). Kind of test: competition ELISA: antibody pre-incubated with human Flag-TWEAK, binding to coated human Fn14:Fc. Here is the method: as §1
Take B1: the IC50 amounted to 2.3 ng/mL.

B2 returned an IC50 of 1.5 ng/mL.

B3 registered an IC50 of 1.8 ng/mL.

As for B4, the IC50 was determined as 2.3 ng/mL.

With B5, the IC50 came out at 1.9 ng/mL. This IC50 and that of the molecule before are within 1.5-fold of each other.

With B6, the IC50 is 1.5 ng/mL. This IC50 and that of the molecule before are within 1.5-fold of each other.

With B7, the IC50 is 1.7 ng/mL. This IC50 and that of the molecule before are within 1.5-fold of each other.

Regarding B8, the IC50 amounted to 1.7 ng/mL.

For a further test, the target named is Mouse soluble TWEAK (mouse) (UniProt O54907). Kind of test: competition ELISA: antibody pre-incubated with mouse soluble TWEAK, binding to coated mouse Fn14:Fc.
B1: the IC50 amounted to 8.2 ng/mL.

For B2, the IC50 is 6.5 ng/mL.

Molecule B3 registered an IC50 of 5.7 ng/mL.

The molecule B4 yielded a concentration for half-maximal inhibition (IC50) of 7.6 ng/mL.

On to B5, for which the IC50 stood at 5.9 ng/mL.

Turning to B6, the IC50 was found to be 5.4 ng/mL. This IC50 and that of the molecule before are within 1.5-fold of each other.

B7: the IC50 came to 6.7 ng/mL.

With B8, the IC50 stood at 7.1 ng/mL.

A further test deals with Biotinylated murine soluble TWEAK (amino acids 81-225 of SEQ ID NO: 61) (murine) (UniProt O54907). Kind of test: Biacore SPR, biotinylated murine soluble TWEAK on SA sensor, antibody as analyte, 37 C.
The molecule B1 had a t/2 diss of 19 min.

B2 gave a t/2 diss of 17 min.

For B3, the t/2 diss came to 21 min.

As to B4, the t/2 diss was determined as 15 min.

In turn, B5 showed a t/2 diss of 20 min.

Molecule B6 returned a t/2 diss of 20 min.

Consider B7, for which the t/2 diss is 15 min.

In turn, B8 registered a t/2 diss of 19 min.

The target is the same in another test. Put plainly: Biacore SPR, biotinylated murine soluble TWEAK on SA sensor, antibody as analyte, 25 C.
B1 had a t/2 diss of 19 min.

For B2, the t/2 diss was 19 min.

B3 showed a t/2 diss of 22 min.

On to B4, for which the t/2 diss was 17 min.

Molecule B5 gave a t/2 diss of 22 min.

Molecule B6 returned a t/2 diss of 17 min.

B7 displayed a t/2 diss of 19 min.

For B8, the t/2 diss came to 19 min.
